What was measured:
[1] = tested on: various cell lines; assay: Cell viability of various cell lines exposed to free DM1; format: cell-based; conditions: control
Procedure: The ADCs were tested for the ability to target and kill BCMA-expressing myeloma cells. The CellTiter-Glo® Luminescent Cell Viability Assay is a homogeneous method to determine the number of viable cells in culture based on quantitation of the ATP present, which signals the presence of metabolically active cells. The CellTiter-Glo® Assay is applicable to cytotoxicity assays (see http://www.promega.com/products/cell-health-assays/cell-viability-assays/celltiter_glo-luminescent-cell-viability-assay/for more information). The cell viability assay was used to assess the relative killing capacity of various ADCs on various multiple myeloma cell lines and B-cell lines. The protocol provided in the Cell Titer-Glo kit (Promega G7572) was followed. In short, 5×10^3 target cells in 90 ul RPMI 1640, 10% FBS were aliquoted into clear, flat bottom, white walled 96 well plates (Costar #3903). The ADCs were diluted into a 10× stock to create 500 nM maytansine drug equivalents. Each ADC was serially diluted in 2-fold dilutions in RPMI 1640, 10% FBS starting with 500 nM stock. […] Luminescence was read on an EnVision™ Multilabel reader (PerkinElmer) or Analyst HT plate reader (LJL Biosciences). The data was analyzed and graphed using GraphPad Prism™ to determine the relative efficacy of the ADCs on various cancer cell lines. […]

[2] = target: T1, Sumo (cleaved from SumoBCMA) (Saccharomyces cerevisiae, UniProt Q12306); assay: Size exclusion chromatography control with Sumo; format: binding; conditions: SEC control
T1 construct: 6xHis (N)
T1 sequence (Q12306 1-98 limits assumed): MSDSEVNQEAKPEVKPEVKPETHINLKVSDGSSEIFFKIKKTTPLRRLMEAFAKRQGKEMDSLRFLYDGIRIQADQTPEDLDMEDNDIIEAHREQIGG
Procedure: (§1) A Superdex 200™ 10/30 cm SEC column (GE Healthcare Life Sciences) was used according to the manufacturer's recommended condision and run in phosphate buffered saline (PBS). Incubations of antibody with excess levels of sumoBCMA were performed at room temperature for at least 30 minutes.

[3] = target: [6xHistidine-SUMO]-huBCMA (SEQ ID NO:350) and its carboxy terminal clipped forms (Homo sapiens, UniProt Q02223); assay: Size exclusion chromatography and LC/MS of antibody complexes with Sumo-huBCMA and clipped forms; format: binding; conditions: SEC and LC/MS; listed as 29C12
Sequence of [6xHistidine-SUMO]-huBCMA (SEQ ID NO:350) and its carboxy terminal clipped forms (Q02223 with tags, fused parts or gaps limits assumed): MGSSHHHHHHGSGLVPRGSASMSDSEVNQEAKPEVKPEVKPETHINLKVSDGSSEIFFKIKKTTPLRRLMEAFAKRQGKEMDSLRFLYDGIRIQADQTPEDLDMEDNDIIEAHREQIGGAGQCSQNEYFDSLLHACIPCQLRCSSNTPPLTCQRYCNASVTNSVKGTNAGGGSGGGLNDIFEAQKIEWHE
From the text: To determine which forms of 6×His-SUMO-huBCMA were bound to the anti-huBCMA antibodies, the SEC fractions were isolated and analyzed. Carboxy-terminus fragments of the extracellular domain of human BCMA were generated as clipped forms from the rhuBCMA fusion protein (6×His::Sumo::huBCMA(aa 5-51)::GGS::G3::Avi) of SEQ ID NO:350, as shown in FIG. 45.
A Superdex 200™ 10/30 cm SEC column (GE Healthcare Life Sciences) was used according to the manufacturer's recommendations and run in phosphate buffered saline (PBS). Incubations of antibody with excess levels of sumoBCMA were performed at room temperature for at least 30 minutes.
as §1
5 ug of total proteins were reduced in 50 mM Tris/4 M guanidine/9 mM DTT, pH 8.0 at 55° C. for 15 min, and analyzed in Agilent LCTOF system using a Vydac C8 column, 2.1 mm ID×150 mm, […] particle size. […] TOF MS conditions included capillary voltage of 4000 V, drying gas flow at 10 L/min, dry gas temperature at 300° C., nebulizer gas flow at 40 L/min, and fragmentor voltage of 300 V. MS data was analyzed in Agilent MassHunter™ Qualitative Analysis program.

[4] = target: T2, human BCMA (Homo sapiens, UniProt Q02223, N81S); assay: FACS binding on cells transiently transfected to express full length BCMA
T2 construct: expressed in transfected cells
T2 sequence (Q02223 1-184 N81S): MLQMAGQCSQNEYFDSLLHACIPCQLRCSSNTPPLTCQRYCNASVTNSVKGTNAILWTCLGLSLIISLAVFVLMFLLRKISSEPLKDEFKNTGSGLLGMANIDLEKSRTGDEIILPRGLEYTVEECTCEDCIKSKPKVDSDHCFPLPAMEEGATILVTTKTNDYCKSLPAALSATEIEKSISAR
Procedure: (§2) An important criterion is exquisite selectivity for wild-type human BCMA expressed on the surface of cells. FACS binding on cells transiently transfected to express full length BCMA, TACI, or BAFF-R was performed using standard techniques. Approximately 40×10^6 of the transiently-transfected target cells were resuspended in a staining solution (2% goat serum, 1% rabbit serum, 0.02% azide in PBS) and aliquoted into round-bottom, 96-well plate (Corning Incorp., Acton, Mass.) as per the experiment design. The cells were incubated at 4 degrees celsius for 30 minutes to block non-specific sites. The antibodies were titrated into the staining solution. The cells were rinsed in a rinse solution (PBS+0.02% azide) by resuspending the cells in 200 ul/well. The cells were centrifuged at 1500 rpm at 4 degrees celsius for 7 minutes. The rinse solution was removed and the rinse step was repeated. The cells were resuspended in the appropriate antibody solution (see the matrix in TABLE 4) at 30 ul/well and incubated at 4 degrees celsius for 30 minutes. […] For the mouse IgG1 negative control and the two mouse antibodies (1.183 and 1.288), the secondary reagent was an anti-mouse IgG-PE conjugate (BD Pharmingen Cat. 550589). The cells/antibodies were rinsed as described above to remove excess/unbound antibody. […] Samples were read at 532 nm wavelength on FACS. […]

[5] = target: T3, TACI (Homo sapiens, UniProt O14836); assay: FACS binding on cells transiently transfected to express full length TACI
T3 construct: expressed in transfected cells
T3 sequence (O14836 1-293): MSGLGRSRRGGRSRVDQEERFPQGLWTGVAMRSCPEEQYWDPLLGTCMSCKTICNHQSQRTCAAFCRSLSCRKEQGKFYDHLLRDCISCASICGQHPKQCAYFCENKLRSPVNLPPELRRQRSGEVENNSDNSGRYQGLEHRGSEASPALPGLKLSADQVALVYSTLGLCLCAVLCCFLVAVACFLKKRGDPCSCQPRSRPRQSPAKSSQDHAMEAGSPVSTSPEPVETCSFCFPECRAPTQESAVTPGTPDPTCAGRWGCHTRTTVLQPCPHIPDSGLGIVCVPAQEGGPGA
Procedure: as §2

COc1cc2cc(c1Cl)N(C)C(=O)C[C@H](OC(=O)[C@H](C)N(C)C(=O)CCS)[C@]1(C)O[C@H]1[C@H](C)[C@@H]1C[C@@](O)(NC(=O)O1)[C@H](OC)/C=C/C=C(\C)C2 [DM1]
killing by free DM1 [1]: killed by free DM1

B1: Ab-8: anti-huBCMA mAb of the second campaign, Vh SEQ ID NO:220, Vl SEQ ID NO:254 (antibody, V domains shown)
VH: EVQLLESGGALVQPGGSLRLSCAASGFTFSSYAMNWVRQAPGKGLEWVSAISVGGDTYYADSVKGRFTISRDNSKNTLYLQMNSLRAEDTAVYYCAKDQVTMVRGVWYYYGLDVWGQGTTVTVSS
VL: DIVMIQSPLSLPVTPGEPASISCRSSQSLLHSNGNNYLDWYLQKPGQSPHLLISLGSNRTSGVPDRFSGSGSGTDFTLKISRVEAEDVGVYYCMQALQPPRRFGQGTKLEIKR
binding to Sumo [2]: did not bind to Sumo
binding to full-length and truncated fragments of human BCMA [3]: bound full-length and truncated forms of BCMA

B2: Ab-6: anti-huBCMA mAb, Vh SEQ ID NO:216, Vl SEQ ID NO:250 (antibody, V domains shown)
VH: QVQLVESGGGVVQPGRSLRLSCAASGFTFSSYGLHWVRQAPGKGLEWVALISYDGSNKYYADSVKGRFTISRDNSKNTLYLQMNSLRAEDTAVYYCWYSSSWTPLDYWGQGTLVTVSS
VL: DIQMTQSPSSLSASVGDRVTITCRASQGIRNDLGWYQQKPGKAPKRLIYAASSLQSGVPSRFSGSGSGTEFTLTISSLQPEDFATYYCLQYYSYPLTFGGGTKVEIKR
BCMA (FACS binding) [4]: + (A sample was considered positive for binding if the MFI was two times the negative control value)
TACI (FACS binding) [5]: + (A sample was considered positive for binding if the MFI was two times the negative control value)
